Data taken from patent publication US20180258175A1 (ABLEXIS, published 2018).
Numbering of substitutions follows the chain as printed. One block for each binder: values may come before it.

How the values were obtained:
[1] = biological target: T1, human CD115 extracellular domain (Sino Biological 10161-H08H) (human, UniProt P07333 20-517); assay: competition ELISA, competitor TMR 44B;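 note: binding of antibodies from single-clone hybridoma supernatants to huCD115 measured with the competitor antibody present, a drop in signal meaning both share an epitope bin; low signal means same epitope bin as the mouse competitor antibody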
T1 construct: extracellular domain; bought recombinant protein; also called huCD115; hu-CD115

[2] = biological target: T1, human CD115 extracellular domain (Sino …); assay: competition ELISA, competitor TMR 100A;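 note: clonal anti-huCD115 hybridoma supernatants tested for binding with the competitor antibody present, clones failing to bind are assigned to the competitor's epitope bin; low signal means same epitope bin as the mouse competitor antibody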
[3] = biological target: T1, human CD115 extracellular domain (Sino …); assay: competition ELISA, competitor TMR 95A;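 note: clonal anti-huCD115 hybridoma supernatants tested for binding while a competitor mouse antibody is present, where failure to bind assigns them to that competitor's epitope bin; low signal means same epitope bin as the mouse competitor antibody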
[4] = biological target: T1, human CD115 extracellular domain (Sino …); assay: competition ELISA, competitor TMR 20A;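 note: epitope binning by ELISA, anti-huCD115 hybridoma supernatant antibodies tested for binding to huCD115 with the competitor antibody present, loss of binding placing them in the competitor's bin; low signal means same epitope bin as the mouse competitor antibody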
[5] = biological target: T1, human CD115 extracellular domain (Sino …); assay: competition ELISA, competitor TMR 24A
[6] = biological target: T1, human CD115 extracellular domain (Sino …); assay: SPR ProteOn, supernatant mAb captured on anti-mouse IgG, Hu CD115 analyte
[7] = biological target: T1, human CD115 extracellular domain (Sino …); assay: competition ELISA, competitor TMR 35A
[8] = biological target: T2, native CD115 on OCI-AML5 cells (UniProt P07333 20-972, limits assumed); assay: FACS, supernatant on OCI-AML5 cells
T2 construct: whole, on cells; cell line endogenous receptor; also called CD115 expressed on OCI-AML5 cells; CD115 expressing AML5 cells

[9] = biological target: T1, human CD115 extracellular domain (Sino …); assay: ELISA, supernatant on huCD115

binding result [8]: binds | binding result [9]: binds
B4: CCL-216A (antibody, V domains shown)
VH: QVQLQESGPGLVKPSETLSLTCTVSGDSISNYYWSWIRQPAGKGLEWIGRIYTSGSTNNNPSLKSRVTMSVDTSKNQFSLKLSSVTAADTAVYYCARERINWFDPWGQGTLVTVSS
VL: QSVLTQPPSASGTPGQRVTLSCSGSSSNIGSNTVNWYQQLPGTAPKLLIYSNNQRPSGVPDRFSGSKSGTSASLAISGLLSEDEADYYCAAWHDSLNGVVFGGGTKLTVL
notes: AlivaMab chimeric IgG, human lambda LC

binding result [8]: binds | binding result [9]: binds
B5: CCL-328A (antibody, V domains shown)
VH: B4 VH with D27G, N31S, N59Y, V71I, E98S, I100L, N101G, W102I, P105Y
VL: not shown
notes: as for B4

binding result [8]: binds | binding result [9]: binds
B13: CCL-346A (antibody, V domains shown)
VH: QVQLQESGPGLVKPSETLSLTCTVSGGSISSYYWSWIRQPAGKGLEWIGRFYTSGSTSCNPSLKSRVTMSVDTSKNQFSLKLSSVTAADTAVYYCAREGILGYFDYWGQGTLVTVSS
VL: not shown
notes: as for B4

binding result [8]: binds | binding result [9]: binds
B14: CCL-204A (antibody, V domains shown)
VH: QVQLQESGPGLVKPSETLSLTCTISSGSISSYYWSWIRQPAGKGLEWIGRIYTSGSTNYHPSLKSRVTMSVDTSKNHFSLKLTSVTAADTAVYYCARERLTGFFDYWGQGTLVTVSS
VL: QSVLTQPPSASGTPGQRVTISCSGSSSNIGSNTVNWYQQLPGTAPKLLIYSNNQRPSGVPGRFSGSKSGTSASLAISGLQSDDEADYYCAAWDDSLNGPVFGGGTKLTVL
notes: as for B4

binding result [8]: binds | binding result [9]: binds
B15: CCL-247A (antibody, V domains shown)
VH: B14 VH with I24V, S26D, H60N, H77Q, L100I, G102S, Y106P
VL: not shown
notes: as for B4

binding result [8]: binds | binding result [9]: binds
B16: CCL-211A (antibody, V domains shown)
VH: QVQLQESGPGLVKPSETLSLTCTVSGGSISSYYWSWIRQPAGKGLEWIGRIYISGTTNYNPSLMSRVTMSVDTSKNQFSLKLTSVTAADTAVYYCARERLVRAFDIWGQGTMVTVSS
VL: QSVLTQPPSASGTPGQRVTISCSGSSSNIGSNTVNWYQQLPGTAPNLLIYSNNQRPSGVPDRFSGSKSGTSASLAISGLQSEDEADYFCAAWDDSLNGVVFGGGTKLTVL
notes: as for B4

binding result [8]: binds | binding result [9]: binds
B17: CCL-205A (antibody, V domains shown)
VH: QVQLQESGPGLVKPSETLSLTCTVSGGSISSYYWSWIRQPAGKGLEWIGRIYISGSIYNNPSLKSRVTMSVDTSKNQFSLKLSSVTAADTAVYYCARDRVGMTFDIWGQGTMVTVSS
VL: not shown
notes: as for B4

signal vs NO COMP=100 [1]: 15% | signal vs NO COMP=100 [2]: 93% | signal vs NO COMP=100 [3]: 42% | signal vs NO COMP=100 [4]: 34% | signal vs NO COMP=100 [5]: 109% | Kd [6]: 1.4 nM | koff [6]: 0.000374 s⁻¹ | kon [6]: 267000 M⁻¹ s⁻¹ | signal vs NO COMP=100 [7]: 111%
B19: CCK-541A (antibody, V domains shown)
VH: QVQLQESGPGLVKPSETLSLTCTVSGASISTYFWSWLRQPPGKGLEWIGYIFYSGSINYNPSLKSRVTISVDTSKNQFSLELSSVTAADTAVYYCARDRTFYGMDVWGQGTTVTVSS
VL: EIVLTQSPGTLSLPPGERATLSCRASQNVSSTYLAWYHQKPGQAPRLLIYGASSRATGIPDRFSGSGSGTDFTLTISRLEPEDFAVYYCQQYGSSPRTFGQGTKVEIK
notes: AlivaMab chimeric IgG, human kappa LC

binding result [8]: binds | binding result [9]: binds
B20: CCL-309A (antibody, V domains shown)
VH: EVQLVESGGGLVQPGGSLRLSCAASGFTFSTYSMNWVRQAPGKGLEWVSYISSSSAIIYYADSVKGRFTISRDNAKNSLYLQMNSLRDEDTAVYYCARDLPITMIVVVMPDAFDIWGQGTMVTVSS
VL: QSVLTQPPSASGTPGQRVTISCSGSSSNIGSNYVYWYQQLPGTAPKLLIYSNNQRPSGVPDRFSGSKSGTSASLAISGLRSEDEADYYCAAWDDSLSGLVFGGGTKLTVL
notes: as for B4

The next lines start with the binder.

B1: CCK-456A (antibody, V domains shown)
VH: EVHLVESGGGLVKPGGSLRLSCAASGFTFSSYSMNWFRQAPGKGLEWVSSISSSSSYIYYADSVKGRFTISRDNAKNSLSLQMNSLRAEDTAVYYCARAGAVAALYNWFDPWGQGTLVTVSS
VL: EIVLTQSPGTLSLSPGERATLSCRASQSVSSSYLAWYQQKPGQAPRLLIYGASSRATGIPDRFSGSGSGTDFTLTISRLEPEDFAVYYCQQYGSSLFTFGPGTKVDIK
notes: as for B19
signal vs NO COMP=100 [1]: 27% | signal vs NO COMP=100 [2]: 96% | signal vs NO COMP=100 [3]: 27% | signal vs NO COMP=100 [4]: 73% | signal vs NO COMP=100 [5]: 42% | Kd [6]: 1.97 nM | koff [6]: 5.3e-05 s⁻¹ | kon [6]: 27000 M⁻¹ s⁻¹ | signal vs NO COMP=100 [7]: 64%

B2: CCK-468A (antibody, V domains shown)
VH: EVQLVESGGGLVQPGRSLRLSCTASGFTFGDYAMTWFRQAPGKGLEWVGFIRSKAYGGTTEYAASVKGRFTISRDDSKSIAYLQMNSLKTEDTAVYYCTREGSFGALDIWGQGTMVTVSS
VL: not shown
notes: as for B19
signal vs NO COMP=100 [1]: 24% | signal vs NO COMP=100 [2]: 95% | signal vs NO COMP=100 [3]: 61% | signal vs NO COMP=100 [4]: 53% | signal vs NO COMP=100 [5]: 85% | signal vs NO COMP=100 [7]: 104%

B3: 549 (Table 4, bin 1D block) (antibody, V domains shown)
VH: QVQFVESGGGVVQPGRSLRLSCAASGFTLSSYGMHWVRQAPGKGLEWVAVIWYDGSNEYYADSVKGRFTISRDNSKNTLYLQMNSLRAEDTAVYYCARDRAWGSGDWGQGTLVTVSS
VL: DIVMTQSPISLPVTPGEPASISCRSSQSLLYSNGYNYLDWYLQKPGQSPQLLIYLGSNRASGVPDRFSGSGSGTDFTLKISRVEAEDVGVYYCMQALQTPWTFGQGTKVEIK
notes: not tied
signal vs NO COMP=100 [1]: 2% | signal vs NO COMP=100 [2]: 100% | signal vs NO COMP=100 [3]: 1% | signal vs NO COMP=100 [4]: 59% | signal vs NO COMP=100 [5]: 111% | signal vs NO COMP=100 [7]: 89%

B6: CCK-467A (antibody, V domains shown)
VH: EVQLVESGGGLVKPGGSLRLSCAASGFTFSSYSMNWVRQAPGKGLEWVSSISSSSSYIYYADSVKGRFTISRDNAKNSLFLQMNSLRAEDTAVYYCARGGSFPYNWFDPWGQGTLVTVSS
VL: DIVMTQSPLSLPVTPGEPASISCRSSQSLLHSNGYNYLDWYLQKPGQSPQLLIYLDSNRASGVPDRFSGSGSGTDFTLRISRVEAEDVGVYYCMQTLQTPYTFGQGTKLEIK
notes: as for B19
signal vs NO COMP=100 [1]: 22% | signal vs NO COMP=100 [2]: 102% | signal vs NO COMP=100 [3]: 46% | signal vs NO COMP=100 [4]: 96% | signal vs NO COMP=100 [5]: 58% | Kd [6]: 0.65 nM | koff [6]: 1.48e-05 s⁻¹ | kon [6]: 23000 M⁻¹ s⁻¹ | signal vs NO COMP=100 [7]: 83%

B7: CCK-519A (antibody, V domains shown)
VH: not shown
VL: DIVMTQTPLSLPVTPGEPASISCRSSQSLLDSDDGNTYLDWYLQKPGQSPQLLIYTLSYRASGVPDRFSGSGSGTDFTLKISRVEAEDVGVYYCMQRIEFPITFGQGTRLEIK
notes: as for B19
signal vs NO COMP=100 [1]: 12% | signal vs NO COMP=100 [2]: 118% | signal vs NO COMP=100 [3]: 36% | signal vs NO COMP=100 [4]: 6% | signal vs NO COMP=100 [5]: 110% | Kd [6]: 0.86 nM | koff [6]: 7.71e-05 s⁻¹ | kon [6]: 90000 M⁻¹ s⁻¹ | signal vs NO COMP=100 [7]: 110%

B8: CCK-533A (antibody, V domains shown)
VH: QVQLVQSGAEVKKPGASVKVSCKASGYTFTGYYMHWVRQAPGQGLEWMGRINPNSGGTYYAQKFQGRVTMTRDTSISTAYVELSRLRSDDTAVYYCARKNPWGHFDYWGQGTLVTVSS
VL: B7 VL with I102Y, R109K
notes: as for B19
Kd [6]: 0.317 nM | koff [6]: 3.92e-05 s⁻¹ | kon [6]: 124000 M⁻¹ s⁻¹

B9: CCK-418A (antibody, V domains shown)
VH: QVQLQESGPGLVKPSETLSLTCTVSGGSISSYYWSWIRQPAGKGLEWIGRIYTSGTTNFNPSLKSRVTMSVDTSKNQFSLKLSSVTAADTAVYYCATLSGTNWGSPFDYWGQGTLVTVSS
VL: not shown
notes: as for B19
signal vs NO COMP=100 [1]: 3% | signal vs NO COMP=100 [2]: 106% | signal vs NO COMP=100 [3]: 10% | signal vs NO COMP=100 [4]: 89% | signal vs NO COMP=100 [5]: 35% | Kd [6]: 0.158 nM | koff [6]: 2.11e-05 s⁻¹ | kon [6]: 133000 M⁻¹ s⁻¹ | signal vs NO COMP=100 [7]: 82%

B10: CCK-407A (antibody, V domains shown)
VH: QVQLQESGPGLVKPSETLSLTCTVSGGSISSYYWSWIRQPAGKGLEWIGHIFSSGSTNYNPSLKSRVTMSVDTSKSQFSLKLSSVTAADTAVYLCARGGVTWFDPWGQGTLVTVSS
VL: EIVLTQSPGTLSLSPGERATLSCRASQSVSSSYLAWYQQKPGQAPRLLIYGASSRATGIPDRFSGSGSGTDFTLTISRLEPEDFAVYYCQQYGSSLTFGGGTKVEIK
notes: as for B19
Kd [6]: 0.95 nM | koff [6]: 6.54e-05 s⁻¹ | kon [6]: 69000 M⁻¹ s⁻¹

B11: 487 (Table 4, bin 3 block) (antibody, V domains shown)
VH: B10 VH
VL: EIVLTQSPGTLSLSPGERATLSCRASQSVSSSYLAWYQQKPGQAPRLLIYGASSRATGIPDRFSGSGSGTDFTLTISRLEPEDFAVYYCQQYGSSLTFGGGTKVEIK
notes: not tied
signal vs NO COMP=100 [1]: 94% | signal vs NO COMP=100 [2]: 103% | signal vs NO COMP=100 [3]: 84% | signal vs NO COMP=100 [4]: 97% | signal vs NO COMP=100 [5]: 86% | signal vs NO COMP=100 [7]: 6%

B12: CCL-337A (antibody, V domains shown)
VH: B14 VH with I24V, S26G, S30N, S56N, H60N, H77L, T83S, F103Y, G108A
VL: not shown
notes: as for B4
binding result [8]: binds | binding result [9]: binds

B18: CCK-539A (antibody, V domains shown)
VH: QVQLVESGGGVVQPGRSLRLSCAASGFTFSTFAMHWVRQAPGKGLEWVAVISYDGSNKYYVDSVKGRFTISRDNSKNTLYLQMNSLRAEDTAMYYCARDGTGDALDIWGQGTMVTVSS
VL: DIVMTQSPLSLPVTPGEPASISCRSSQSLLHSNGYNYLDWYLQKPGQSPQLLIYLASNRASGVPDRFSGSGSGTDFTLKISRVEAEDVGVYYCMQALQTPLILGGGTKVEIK
notes: as for B19
Kd [6]: 2.7 nM | koff [6]: 8.5e-05 s⁻¹ | kon [6]: 32000 M⁻¹ s⁻¹

B21: CCK-465A (antibody, V domains shown)
VH: QVQLQESGPGLVKPSETLSLSCTVSGGSISSYYWSWIRQPAGKGLEWIGRIYTSGSTNYNPSLKSRVTMSVDTSKNQFSLKLSSVTAADTAVYYCARDRSFYGMDVWGQGTTVTVSS
VL: DIQMTQSPSSLSASVGDRVTITCRASQGFSNYLAWYQQKPGKVPKLLIYAASTLQSGVPSRFSGSGSGTDFTLTISSLQPEDVATYYCQKYNSAPLTFGGGTKVEIK
notes: as for B19
signal vs NO COMP=100 [1]: 8% | signal vs NO COMP=100 [2]: 92% | signal vs NO COMP=100 [3]: 41% | signal vs NO COMP=100 [4]: 78% | signal vs NO COMP=100 [5]: 81% | Kd [6]: 1.41 nM | koff [6]: 0.000749 s⁻¹ | kon [6]: 531000 M⁻¹ s⁻¹ | signal vs NO COMP=100 [7]: 88%
